Data published in US20250019451A1 (published 2025).
Positions count from the first letter of the chain named. Like-named read-outs stand apart in the source and are kept apart here. Blank lines part the entries; values can stand above or below the binder they belong to.

Assays:
[1] = target: T1, human CCR8 (UniProt P51685 1-355); assay: FACS cell binding
[2] = target: T1, human CCR8; assay: CCL1 blocking
[3] = target: T1, human CCR8; assay: CCL1 blocking; remark: listed apart in the source
[4] = target: T2, mouse CCR8 (UniProt P56484 1-353); assay: FACS cell binding
T2 chain: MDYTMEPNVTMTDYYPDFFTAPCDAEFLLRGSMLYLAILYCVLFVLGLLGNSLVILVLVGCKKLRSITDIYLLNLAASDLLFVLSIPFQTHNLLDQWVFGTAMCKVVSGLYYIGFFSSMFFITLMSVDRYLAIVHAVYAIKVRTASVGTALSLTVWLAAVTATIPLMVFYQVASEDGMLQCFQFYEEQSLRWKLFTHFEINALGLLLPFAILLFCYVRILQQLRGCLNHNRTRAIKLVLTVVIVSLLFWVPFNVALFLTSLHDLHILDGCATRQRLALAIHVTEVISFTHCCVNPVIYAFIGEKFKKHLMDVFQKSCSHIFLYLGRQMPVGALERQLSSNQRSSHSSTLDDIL

[5] = target: T1, human CCR8; assay: FACS cell binding; remark: listed apart in the source

EC50 [1]: 9.05 nM
B1: HFB11-21 (antibody, V domains shown)
VH: QVQLQQPGAELVKPGASVKLSCKASGYTFISYWMHWVKQRPGRGLEWIGRIDPNSGKTKYNEKFKTKATLTVDKSSSTAYMHLNSLTSDDSAVYYCAREGWGDYWGQGTTLTVSS
VL: DIVLTQSPASLAVSLGQRATISCRASESVDNYGISFMHWYQQKPGQPPRLLIYRASNLASGIPARFSGSGSSTDFTLTINPVETDDIATYYCQQSNKDPRTFGGGTKLEIK

EC50 [1]: 0.86 nM
B2: HFB11-19 (antibody, V domains shown)
VH: QVQLQQSGAELVKPGASVKLSCKASGYTFTDYIIHWVKQRSGQGLEWIGWFSPRNNYVKYNERFTDKATLTADKSSNTVYMELSSLTSEDSAVYFCSRHGRNSIGFAYWGQGTLVTVSA
VL: DIVMTQAAPSVPVTPGESVSISCRSSKSLLNSNGNTYLYWFLQRPGQSPQLLIYRMSNLASGVPDRFSGSGSGTAFTLRISRVEAEDVGVYYCMQHLEYPYTFGGGTKLEIK

IC50 [2]: 1.3 nM
EC50 [1]: 1.63 nM
B3: HFB11-3 (antibody, V domains shown)
VH: EVQLVESGGGLVQPQGSLKLSCAASGFSFNTYAMNWVRQAPGKGLQWVARIRSKSNNYATYYADSVKDRFTISRDDSESMLYLQMNNLKTEDAAMYYCVRGKDANYFYAMDYWGQGTSVTVSS
VL: B2 VL with N31H, Y101F, G105A, I111L

IC50 [3]: 0.428 nM
IC50 [2]: 0.428 nM
EC50 [1]: 0.57 nM
B4: HFB11-10 (antibody, V domains shown)
VH: EVQLVETGGGLVQPKGSLKLSCAASGFRFNTNAMNWVRQAPGKDLEWVARIRSKSNNYATYYADSVKDRFTISRDDSQSMLYLQMNNVKTEDTAMYYCVRGSDNNYYYAMDYWGQGTSVTVSS
VL: B2 VL with N31H, Y101F, G105S

IC50 [2]: 0.452 nM
EC50 [1]: 0.53 nM
B5: HFB11-8 (antibody, V domains shown)
VH: B4 VH with D44G, Y61H, A63V, I72V, V88L, T90A
VL: B2 VL with N31H, A75S, A85V, Y101F, G105S

IC50 [2]: 1.33 nM
EC50 [1]: 0.98 nM
EC50 [4]: 0.4 nM
B6: HFB11-2 (antibody, V domains shown)
VH: EVQLVESGGGLVQPKGSLKLSCAASGFSFNTYAMNWVRQAPGKGLEWVARIRSKSNNYATYYADSVKDRFTISRDDSERMLYLQMNNLKTEDTAMYYCVRGGSYYSNHYFDYWGQGTTLTVSS
VL: B2 VL with N31H, R55Q, Y101F, G105A, I111L

EC50 [5]: 0.37 nM
B7: HFB11-10 parental antibody (non-humanized) in ADCC enhanced format (antibody, V domains shown)
VH: B4 VH
VL: B2 VL with N31H, Y101F, G105S

IC50 [2]: 0.413 nM
EC50 [1]: 0.49 nM
B8: HFB11-5 (antibody, V domains shown)
VH: EVQLVESGGGLVQPRGSLKLSCTASGFSFNAYAMNWVRQAPGKGLEWVARIRTKSNNYATYYADSVKDRFTISRDDSESMLYLQMKNLKTEDTAMYYCVRGGYGNGGYYFDYWGQGTTLTVSS
VL: B2 VL with P12T, V19A, N31H, S32R, T36S, M56I, Y101F, G105S
